Laboratory results reported in US9637764B2, “Methods of producing 7-carbon chemicals via carbon chain elongation associated with cyclohexane carboxylate synthesis” (INVISTA North America S.á r.l., priority 2012, dated 2017).

Tests used:
Assay type in all cases: biochemical
[1] = Carboxylate reductase activity assay, pimelate to pimelate semialdehyde (NADPH consumption, absorbance at 340 nm); details: purified enzyme enhanced by the gene product of sfp, 2 mM pimelate, 1 mM ATP, 1 mM NADPH, pH=7.5, room temperature, 20 min; against the empty vector control; FIG. 10
Procedure: A sequence encoding a HIS-tag was added to the genes from Segniliparus rugosus and Segniliparus rotundus that encode the carboxylate reductases of SEQ ID NOs: 4 and 7, respectively (see FIGS. 7C and 7F), such that N-terminal HIS tagged carboxylate reductases could be produced. Each of the modified genes was cloned into a pET Duet expression vector along with a sfp gene encoding a HIS-tagged phosphopantetheine transferase from Bacillus subtilis, both under the T7 promoter. Each expression vector was transformed into a BL21[DE3] E. coli host and the resulting recombinant E. coli strains were cultivated at 37° C. in a 250 mL shake flask culture containing 50 mL LB media and antibiotic selection pressure, with shaking at 230 rpm. Each culture was induced overnight at 37° C. using an auto-induction media.
The pellet from each induced shake flask culture was harvested via centrifugation. Each pellet was resuspended and lysed via sonication, and the cell debris was separated from the supernatant via centrifugation. […]
Enzyme activity assays (i.e., from pimelate to pimelate semialdehyde) were performed in triplicate in a buffer composed of a final concentration of 50 mM HEPES buffer (pH=7.5), 2 mM pimelate, 10 mM MgCl2, 1 mM ATP and 1 mM NADPH. […] The consumption of NADPH was monitored by absorbance at 340 nm.

[2] = Thioesterase enzyme activity assay, pimeloyl-CoA to pimelate (release of Coenzyme A, Ellman's reagent, absorbance at 412 nm); details: 667 μM pimeloyl-CoA, 0.8 μM enzyme, pH=7.4, 37° C., 20 min; compared to the empty vector control; FIG. 8
Procedure: A sequence encoding an N-terminal His tag was added to the tesB gene from Escherichia coli that encodes a thioesterase (SEQ ID NO 1, see FIG. 7A), such that an N-terminal HIS tagged thioesterase could be produced. The modified tesB gene was cloned into a pET15b expression vector under control of the T7 promoter. The expression vector was transformed into a BL21[DE3] E. coli host. The resulting recombinant E. coli strain was cultivated at 37° C. in a 500 mL shake flask culture containing 50 mL Luria Broth (LB) media and antibiotic selection pressure, with shaking at 230 rpm. The culture was induced overnight at 17° C. using 0.5 mM IPTG.
The pellet from the induced shake flask culture was harvested via centrifugation. The pellet was resuspended and lysed in Y-Per™ solution (ThermoScientific, Rockford, Ill.). The cell debris was separated from the supernatant via centrifugation. […]
The enzyme activity assay was performed in triplicate in a buffer composed of 50 mM phosphate buffer (pH=7.4), 0.1 mM Ellman's reagent, and 667 μM of pimeloyl-CoA (as substrate). […] The release of Coenzyme A was monitored by absorbance at 412 nm. The absorbance associated with the substrate only control, which contained boiled enzyme, was subtracted from the active enzyme assay absorbance and compared to the empty vector control.

[3] = Carboxylate reductase activity assay, N7-acetyl-7-aminoheptanoate to N7-acetyl-7-aminoheptanal (NADPH consumption, absorbance at 340 nm); details: purified enzyme enhanced by the gene product of sfp, 2 mM N7-acetyl-7-aminoheptanoate, 1 mM ATP, 1 mM NADPH, pH=7.5, room temperature, 20 min; against the empty vector control; FIG. 12
Procedure: The activity of each of the N-terminal His-tagged carboxylate reductases of SEQ ID NOs: 3, 6, and 7 (see Examples 4, and FIGS. 7B, 7E, and 7F) for converting N7-acetyl-7-aminoheptanoate to N7-acetyl-7-aminoheptanal was assayed in triplicate in a buffer composed of a final concentration of 50 mM HEPES buffer (pH=7.5), 2 mM N7-acetyl-7-aminoheptanoate, 10 mM MgCl2, 1 mM ATP, and 1 mM NADPH. The assays were initiated by adding purified carboxylate reductase and phosphopantetheine transferase or the empty vector control to the assay buffer containing the N7-acetyl-7-aminoheptanoate then incubated at room temperature for 20 min. The consumption of NADPH was monitored by absorbance at 340 nm.

B1: SEQ ID NO 4: Segniliparus rugosus carboxylate reductase, Genbank Accession No. EFV11917.1 (protein, listed as Segniliparus rugosus)
chain: MGDGEERAKRFFQRIGELSATDPQFAAAAPDPAVVEAVSDPSLSFTRYLDTLMRGYAERPALAHRVGAGYETISYGELWARVGAIAAAWQADGLAPGDFVATVGFTSPDYVAVDLAAARSGLVSVPLQAGASLAQLVGILEETEPKVLAASASSLEGAVACALAAPSVQRLVVFDLRGPDASESAADERRGALADAEEQLARAGRAVVVETLADLAARGEALPEAPLFEPAEGEDPLALLIYTSGSTGAPKGAMYSQRLVSQLWGRTPVVPGMPNISLHYMPLSHSYGRAVLAGALSAGGTAHFTANSDLSTLFEDIALARPTFLALVPRVCEMLFQESQRGQDVAELRERVLGGRLLVAVCGSAPLSPEMRAFMEEVLGFPLLDGYGSTEALGVMRNGIIQRPPVIDYKLVDVPELGYRTTDKPYPRGELCIRSTSLISGYYKRPEITAEVFDAQGYYKTGDVMAEIAPDHLVYVDRSKNVLKLSQGEFVAVAKLEAAYGTSPYVKQIFVYGNSERSFLLAVVVPNAEVLGARDQEEAKPLIAASLQKIAKEAGLQSYEVPRDFLIETEPFTTQNGLLSEVGKLLRPKLKARYGEALEARYDEIAHGQADELRALRDGAGQRPVVETVVRAAVAISGSEGAEVGPEANFADLGGDSLSALSLANLLHDVFEVEVPVRIIIGPTASLAGIAKHIEAERAGASAPTAASVHGAGATRIRASELTLEKFLPEDLLAAAKGLPAADQVRTVLLTGANGWLGRFLALEQLERLARSGQDGGKLICLVRGKDAAAARRRIEETLGTDPALAARFAELAEGRLEVVPGDVGEPKFGLDDAAWDRLAEEVDVIVHPAALVNHVLPYHQLFGPNVVGTAEIIRLAITAKRKPVTYLSTVAVAAGVEPSSFEEDGDIRAVVPERPLGDGYANGYGNSKWAGEVLLREAHELVGLPVAVFRSDMILAHTRYTGQLNVPDQFTRLVLSLLATGIAPKSFYQQGAAGERQRAHYDGIPVDFTAEAITTLGAEPSWFDGGAGFRSFDVFNPHHDGVGLDEFVDWLIEAGHPISRIDDHKEWFARFETAVRGLPEAQRQHSLLPLLRAYSFPHPPVDGSVYPTGKFQGAVKAAQVGSDHDVPHLGKALIVKYADDLKALGLL
[1]
  carboxylate reductase activity for converting pimelate to pimelate semialdehyde: accepted pimelate as substrate

B2: tesB: Escherichia coli thioesterase encoded by tesB, GenBank Accession No. AAA24665.1 (protein, listed as Escherichia coli)
chain: MSQALKNLLTLLNLEKIEEGLFRGQSEDLGLRQVFGGQVVGQALYAAKETVPEERLVHSFHSYFLRPGDSKKPIIYDVETLRDGNSFSARRVAAIQNGKPIFYMTASFQAPEAGFEHQKTMPSAPAPDGLPSETQIAQSLAHLLPPVLKDKFICDRPLEVRPVEFHNPLKGHVAEPHRQVWIRANGSVPDDLRVHQYLLGYASDLNFLPVALQPHGIGFLEPGIQIATIDHSMWFHRPFNLNEWLLYSVESTSASSARGFVRGEFYTQDGVLVASTVQEGVMRNHN
[2]
  thioesterase activity for converting pimeloyl-CoA to pimelate: accepted pimeloyl-CoA as substrate

B3: SEQ ID NO 6: Mycobacterium massiliense carboxylate reductase, Genbank Accession No. EIV11143.1 (protein)
chain: MTNETNPQQEQLSRRIESLRESDPQFRAAQPDPAVAEQVLRPGLHLSEAIAALMTGYAERPALGERARELVIDQDGRTTLRLLPRFDTTTYGELWSRTTSVAAAWHHDATHPVKAGDLVATLGFTSIDYTVLDLAIMILGGVAVPLQTSAPASQWTTILAEAEPNTLAVSIELIGAAMESVRATPSIKQVVVFDYTPEVDDQREAFEAASTQLAGTGIALETLDAVIARGAALPAAPLYAPSAGDDPLALLIYTSGSTGAPKGAMHSENIVRRWWIREDVMAGTENLPMIGLNFMPMSHIMGRGTLTSTLSTGGTGYFAASSDMSTLFEDMELIRPTALALVPRVCDMVFQRFQTEVDRRLASGDTASAEAVAAEVKADIRDNLFGGRVSAVMVGSAPLSEELGEFIESCFELNLTDGYGSTEAGMVFRDGIVQRPPVIDYKLVDVPELGYFSTDKPHPRGELLLKTDGMFLGYYKRPEVTASVFDADGFYMTGDIVAELAHDNIEIIDRRNNVLKLSQGEFVAVATLEAEYANSPVVHQIYVYGSSERSYLLAVVVPTPEAVAAAKGDAAALKTTIADSLQDIAKEIQLQSYEVPRDFIIEPQPFTQGNGLLTGIAKLARPNLKAHYGPRLEQMYAEIAEQQAAELRALHGVDPDKPALETVLKAAQALLGVSSAELAADAHFTDLGGDSLSALSFSDLLRDIFAVEVPVGVIVSAANDLGGVAKFVDEQRHSGGTRPTAETVHGAGHTEIRAADLTLDKFIDEATLHAAPSLPKAAGIPHTVLLTGSNGYLGHYLALEWLERLDKTDGKLIVIVRGKNAEAAYGRLEEAFDTGDTELLAHFRSLADKHLEVLAGDIGDPNLGLDADTWQRLADTVDVIVHPAALVNHVLPYNQLFGPNVVGTAEIIKLAITTKIKPVTYLSTVAVAAYVDPTTFDEESDIRLISAVRPIDDGYANGYGNAKWAGEVLLREAHDLCGLPVAVFRSDMILAHSRYTGQLNVPDQFTRLILSLIATGIAPGSFYQAQTTGERPLAHYDGLPGDFTAEAITTLGTQVPEGSEGFVTYDCVNPHADGISLDNFVDWLIEAGYPIARIDNYTEWFTRFDTAIRGLSEKQKQHSLLPLLHAFEQPSAAENHGVVPAKRFQHAVQAAGIGPVGQDGTTDIPHLSRRLIVKYAKDLEQLGLL
modifications: Mycobacterium massiliense
[3]
  carboxylate reductase activity for converting N7-acetyl-7-aminoheptanoate to N7-acetyl-7-aminoheptanal: accepted N7-acetyl-7-aminoheptanoate as substrate
